“And” between values parts separate entries of the source, which are not always exact repeats. Equal values may be shown once.
Tests used:
Experiment in all cases: SPR
[1] = biological target: EVA-A(1-98) (A. americanum)
[2] = biological target: EVA-A(21-102) (A. americanum)
[3] = biological target: EVA-A(Y44A) (A. americanum)
[4] = biological target: EVA-A(DN) (Amblyomma americanum)
[5] = biological target: EVA-A(DC) (Amblyomma americanum)
[6] = biological target: EVA-A(L39P) (A. americanum)
[7] = biological target: EVA-A(C8) (A. americanum)
[8] = biological target: EVA-A(Y44A) (Amblyomma americanum)
[9] = biological target: EVA-A(L39P) (Amblyomma americanum)
[10] = biological target: EVA-A(C8) (Amblyomma americanum)

Sequence of CCL8 (P80075 24-99): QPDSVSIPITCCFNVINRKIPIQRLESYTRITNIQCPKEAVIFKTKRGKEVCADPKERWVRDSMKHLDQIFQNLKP
Sequence of CCL21 (O00585 24-134): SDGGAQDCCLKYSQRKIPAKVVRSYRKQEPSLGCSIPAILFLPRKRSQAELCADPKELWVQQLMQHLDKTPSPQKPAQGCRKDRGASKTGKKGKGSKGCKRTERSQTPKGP
Sequence of CCL7 (P80098 24-99): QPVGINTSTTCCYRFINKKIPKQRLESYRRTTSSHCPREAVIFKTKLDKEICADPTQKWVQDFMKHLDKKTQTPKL
Sequence of CCL1 (P22362 24-96): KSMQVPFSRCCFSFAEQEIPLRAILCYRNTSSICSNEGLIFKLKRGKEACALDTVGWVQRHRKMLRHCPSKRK
Sequence of CCL23 (P55773 22-120): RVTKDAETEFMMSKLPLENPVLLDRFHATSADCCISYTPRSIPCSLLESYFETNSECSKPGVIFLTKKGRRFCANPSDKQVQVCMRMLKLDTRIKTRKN
Sequence of CCL15 (Q16663 22-113): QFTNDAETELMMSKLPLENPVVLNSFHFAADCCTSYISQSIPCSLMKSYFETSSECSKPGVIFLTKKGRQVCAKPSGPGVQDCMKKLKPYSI
Sequence of CCL17 (Q92583 24-94): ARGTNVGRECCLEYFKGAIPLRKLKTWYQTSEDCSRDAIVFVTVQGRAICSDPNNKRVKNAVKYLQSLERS
Sequence of CCL27 (Q9Y4X3 25-112): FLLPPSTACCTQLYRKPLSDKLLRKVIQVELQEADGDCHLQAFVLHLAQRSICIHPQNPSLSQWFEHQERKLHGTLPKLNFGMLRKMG
Sequence of CCL11 (P51671 24-97): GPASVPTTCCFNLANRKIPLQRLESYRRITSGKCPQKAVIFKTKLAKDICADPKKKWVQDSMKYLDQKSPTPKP
Sequence of CCL2 (P13500 24-99): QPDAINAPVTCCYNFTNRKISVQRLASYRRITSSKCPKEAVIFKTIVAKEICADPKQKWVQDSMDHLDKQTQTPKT
Sequence of CCL14 (Q16627 20-93): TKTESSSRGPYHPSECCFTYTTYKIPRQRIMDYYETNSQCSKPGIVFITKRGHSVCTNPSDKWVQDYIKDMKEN
Sequence of CCL5 (P13501 24-91): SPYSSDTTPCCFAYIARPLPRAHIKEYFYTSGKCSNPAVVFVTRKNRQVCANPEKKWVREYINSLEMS
Sequence of CCL22 (O00626 25-93): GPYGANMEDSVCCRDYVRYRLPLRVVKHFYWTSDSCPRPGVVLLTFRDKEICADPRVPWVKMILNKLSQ

Substance | Kd [1] [nM] | koff [1] [s⁻¹] | kon [1] [M⁻¹ s⁻¹] | Kd [2] [nM] | koff [2] [s⁻¹] | kon [2] [M⁻¹ s⁻¹] | Kd [3] [nM] | koff [3] [s⁻¹] | kon [3] [M⁻¹ s⁻¹] | Kd [4] | Kd [5] | Kd [6] [nM] | koff [6] [s⁻¹] | kon [6] [M⁻¹ s⁻¹] | Kd [8] | koff [8] | kon [8] | Kd [9] | koff [9] | kon [9] | also measured
CCL11 (from UniProt P51671 24-97) (ligand) | 487 | 0.0537 | 101000 | 507 | 0.218 | 454000 | 1.73 | 0.0015 | 877000 | 750 nM and 383 nM and 390 nM | 481 nM and 474 nM and 507 nM | 3.32 | 0.00372 | 1.4e+06 | 1.67 nM and 1.9 nM and 1.61 nM | 0.00144 s⁻¹ and 0.00137 s⁻¹ and 0.00169 s⁻¹ | 862000 M⁻¹ s⁻¹ and 719000 M⁻¹ s⁻¹ and 1.05e+06 M⁻¹ s⁻¹ | 3.46 nM and 2.95 nM and 3.55 nM | 0.00417 s⁻¹ and 0.00433 s⁻¹ and 0.00541 s⁻¹ | 1.2e+06 1/(M s) and 1.5e+06 1/(M s) (2×) | koff [4]: 0.264 s⁻¹ and 0.203 s⁻¹ and 0.187 s⁻¹; kon [4]: 352000 M⁻¹ s⁻¹ and 531000 M⁻¹ s⁻¹ and 480000 M⁻¹ s⁻¹; koff [5]: 0.0537 s⁻¹ and 0.0345 s⁻¹ and 0.0604 s⁻¹; kon [5]: 112000 M⁻¹ s⁻¹ and 72900 M⁻¹ s⁻¹ and 119000 M⁻¹ s⁻¹; Kd [7]: 663 nM; koff [7]: 0.196 s⁻¹; kon [7]: 236000 M⁻¹ s⁻¹; Kd [10]: 842 nM and 836 nM and 312 nM
CCL8 (from UniProt P80075 24-99) (ligand) | 163 | 0.0344 | 173000 | 169 | 0.0344 | 112000 | 3.62 | 0.00156 | 474000 | 328 nM and 146 nM and 34.1 nM | 188 nM and 89.1 nM and 212 nM | 2.59 | 0.00218 | 971000 | 4.46 nM and 3.95 nM and 2.44 nM | 0.00137 s⁻¹ and 0.0015 s⁻¹ and 0.0018 s⁻¹ | 307000 M⁻¹ s⁻¹ and 378000 M⁻¹ s⁻¹ and 737000 M⁻¹ s⁻¹ | 2.73 nM and 2.16 nM and 2.89 nM | 0.00242 s⁻¹ and 0.00205 s⁻¹ and 0.00312 s⁻¹ | 884000 M⁻¹ s⁻¹ and 949000 M⁻¹ s⁻¹ and 1.08e+06 M⁻¹ s⁻¹ | 
CCL14 (from UniProt Q16627 20-93) (ligand) | < 0.1 | < 0.0001 | 239000 | 0.11 | 8e-05 | 703000 | 0.11 | 5e-05 | 481000 |  |  | 0.04 | 0.00013 | 2.41e+06 |  |  |  |  |  |  | Kd [7]: 1.3 nM; koff [7]: 0.00048 s⁻¹; kon [7]: 386000 M⁻¹ s⁻¹
CCL15 (from UniProt Q16663 22-113) (ligand) | 31.7 | 0.00162 | 53000 | 34 | 0.00214 | 63000 | 161 | 0.0117 | 79000 |  |  | 26.6 | 0.00467 | 102000 |  |  |  |  |  |  | Kd [7]: 577 nM; koff [7]: 0.0127 s⁻¹; kon [7]: 22000 M⁻¹ s⁻¹
CCL21 (from UniProt O00585 24-134) (ligand) | 17.8 | 0.00233 | 126000 | 47.5 | 0.0106 | 224000 | 119 | 0.00356 | 36000 | 51.1 nM and 51.4 nM and 40 nM | 30.1 nM and 12.1 nM and 11.4 nM | 24.5 | 0.00484 | 197000 | 135 nM and 40.8 nM and 180 nM | 0.00431 s⁻¹ and 0.00219 s⁻¹ and 0.00417 s⁻¹ | 32000 M⁻¹ s⁻¹ and 53800 M⁻¹ s⁻¹ and 23100 M⁻¹ s⁻¹ | 24.3 nM and 19.8 nM and 29.4 nM | 0.00331 s⁻¹ and 0.00445 s⁻¹ and 0.00676 s⁻¹ | 136000 M⁻¹ s⁻¹ and 225000 M⁻¹ s⁻¹ and 230000 M⁻¹ s⁻¹ | koff [4]: 0.0125 s⁻¹ and 0.0092 s⁻¹ and 0.00995 s⁻¹; kon [4]: 245000 M⁻¹ s⁻¹ and 179000 M⁻¹ s⁻¹ and 248000 M⁻¹ s⁻¹; koff [5]: 0.00233 s⁻¹ and 0.00174 s⁻¹ and 0.00177 s⁻¹; kon [5]: 77500 M⁻¹ s⁻¹ and 144000 M⁻¹ s⁻¹ and 154000 M⁻¹ s⁻¹
CCL16(L19A) (from UniProt O15467 24-120) (ligand) |  |  |  |  |  |  | 15.9 | 0.00151 | 107000 |  |  | 1.53 | 0.00085 | 560000 | 25.2 nM and 12.3 nM and 10.2 nM | 0.00171 s⁻¹ and 0.00134 s⁻¹ and 0.00147 s⁻¹ | 68100 M⁻¹ s⁻¹ and 109000 M⁻¹ s⁻¹ and 144000 M⁻¹ s⁻¹ | 1.54 nM and 1.52 nM (2×) | 0.000757 s⁻¹ and 0.000893 s⁻¹ and 0.000913 s⁻¹ | 492000 M⁻¹ s⁻¹ and 588000 M⁻¹ s⁻¹ and 599000 M⁻¹ s⁻¹ | 
CCL5 (from UniProt P13501 24-91) (ligand) | 1.03 | 0.00033 | 354000 | 2.52 | 0.00195 | 777000 | 0.23 | 0.00021 | 981000 | 2.42 nM (2×) and 2.72 nM | 0.973 nM and 1.11 nM and 1 nM | < 0.1 | < 0.0001 | 1.53e+06 | 0.145 nM and 0.294 nM and 0.251 nM | 0.000189 s⁻¹ and 0.000193 s⁻¹ and 0.000245 s⁻¹ | 1.31e+06 M⁻¹ s⁻¹ and 658000 M⁻¹ s⁻¹ and 976000 M⁻¹ s⁻¹ | 0.0849 nM and 0.0557 nM and 0.0372 nM | 9.49e-05 s⁻¹ and 0.000111 s⁻¹ and 5.52e-05 s⁻¹ | 1.12e+06 M⁻¹ s⁻¹ and 1.98e+06 M⁻¹ s⁻¹ and 1.48e+06 M⁻¹ s⁻¹ | koff [4]: 0.00208 s⁻¹ and 0.00189 s⁻¹ and 0.00187 s⁻¹; kon [4]: 860000 M⁻¹ s⁻¹ and 783000 M⁻¹ s⁻¹ and 688000 M⁻¹ s⁻¹; koff [5]: 0.000331 s⁻¹ and 0.000413 s⁻¹ and 0.00035 s⁻¹; kon [5]: 340000 M⁻¹ s⁻¹ and 372000 M⁻¹ s⁻¹ and 348000 M⁻¹ s⁻¹; Kd [7]: 16 nM; koff [7]: 0.0115 s⁻¹; kon [7]: 716000 M⁻¹ s⁻¹; Kd [10]: 15.9 nM and 16.3 nM and 16 nM; koff [10]: 0.0113 s⁻¹ and 0.012 s⁻¹ and 0.0111 s⁻¹; kon [10]: 712000 M⁻¹ s⁻¹ and 738000 M⁻¹ s⁻¹ and 697000 M⁻¹ s⁻¹
CCL2 (from UniProt P13500 24-99) (ligand) |  |  |  |  |  |  | 123 | 0.032 | 291000 |  |  | 24.9 | 0.036 | 329000 | 109 nM and 191 nM and 70 nM |  |  | 25.6 nM and 20.7 nM and 28.4 nM | 0.00858 s⁻¹ and 0.00729 s⁻¹ and 0.00847 s⁻¹ | 335000 M⁻¹ s⁻¹ and 353000 M⁻¹ s⁻¹ and 298000 M⁻¹ s⁻¹ | 
CCL1 (from UniProt P22362 24-96) (ligand) | 406 | 0.00168 | 6000 | 457 | 0.18 | 268000 | 49.9 | 0.00256 | 57000 | 686 nM and 369 nM and 318 nM | 327 nM and 241 nM and 650 nM | 57.5 | 0.00167 | 17000 | 30.2 nM and 67.9 nM and 51.6 nM | 0.00285 s⁻¹ and 0.00348 s⁻¹ and 0.00135 s⁻¹ |  | 44.7 nM and 48.2 nM and 79.6 nM | 0.000863 s⁻¹ and 0.00063 s⁻¹ and 0.00153 s⁻¹ | 19300 M⁻¹ s⁻¹ and 13100 M⁻¹ s⁻¹ and 19200 M⁻¹ s⁻¹ | koff [5]: 0.00168 s⁻¹ and 0.00255 s⁻¹ and 0.00199 s⁻¹
CCL14 (ligand) |  |  |  |  |  |  |  |  |  |  |  |  |  |  |  |  |  |  |  |  | kon [5]: 206000 M⁻¹ s⁻¹ and 297000 M⁻¹ s⁻¹ and 214000 M⁻¹ s⁻¹
CCL17 (from UniProt Q92583 24-94) (ligand) | < 0.1 |  |  | 1.04 |  |  | 61.9 |  |  | 1.06 nM and 1.05 nM and 1.01 nM |  | 7.49 |  |  | 65.8 nM and 104 nM and 15.8 nM |  |  | 3.31 nM and 3.25 nM and 15.9 nM |  |  | Kd [7]: 97.1 nM; Kd [10]: 77 nM and 67.5 nM and 147 nM
CCL7 (from UniProt P80098 24-99) (ligand) | 1010 |  |  |  |  |  |  |  |  |  |  |  |  |  | 4.63 nM and 5.4 nM and 4.4 nM |  |  |  |  |  | Kd [7]: 765 nM
CCL11(F11A) (from UniProt P51671 24-97) (ligand) |  |  |  |  |  |  | 2.83 | 0.00226 | 802000 |  |  | 0.51 | 0.00035 | 707000 | 2.64 nM and 2.95 nM and 2.91 nM | 0.00233 1/s (2×) and 0.00213 1/s | 884000 M⁻¹ s⁻¹ and 722000 M⁻¹ s⁻¹ and 801000 M⁻¹ s⁻¹ | 0.424 nM and 0.602 nM and 0.499 nM | 0.000383 s⁻¹ and 0.000365 s⁻¹ and 0.000304 s⁻¹ | 904000 M⁻¹ s⁻¹ and 606000 M⁻¹ s⁻¹ and 610000 M⁻¹ s⁻¹ | 
CCL15 (ligand) |  |  |  |  |  |  |  |  |  |  | 30.9 nM and 32.9 nM and 31.2 nM |  |  |  |  |  |  |  |  |  | koff [5]: 0.00162 s⁻¹ and 0.00173 s⁻¹ and 0.00167 s⁻¹; kon [5]: 52500 M⁻¹ s⁻¹ and 52700 M⁻¹ s⁻¹ and 53700 M⁻¹ s⁻¹
CCL23 (from UniProt P55773 22-120) (ligand) | 0.45 | 2e-05 | 144000 | 0.51 | 4e-05 | 87000 | 18.8 | 0.00176 | 100000 |  |  | 1.14 | 0.00067 | 140000 |  |  |  |  |  |  | Kd [7]: 20.3 nM; koff [7]: 0.00131 s⁻¹; kon [7]: 74000 M⁻¹ s⁻¹
CCL22 (from UniProt O00626 25-93) (ligand) | 125 | 0.00084 | 29000 | 61.6 | 0.00161 | 26000 | 11.2 | 0.00818 | 766000 | 64.9 nM and 73.9 nM and 46 nM | 125 nM | 1.46 | 0.00292 | 1.03e+06 | 6.2 nM and 14.4 nM and 13.1 nM | 0.0056 s⁻¹ and 0.00713 s⁻¹ and 0.0118 s⁻¹ | 903000 M⁻¹ s⁻¹ and 496000 M⁻¹ s⁻¹ and 899000 M⁻¹ s⁻¹ | 1.64 nM and 1.17 nM and 1.57 nM | 0.00125 s⁻¹ and 0.00151 s⁻¹ and 0.00165 s⁻¹ | 763000 M⁻¹ s⁻¹ and 1.28e+06 M⁻¹ s⁻¹ and 1.05e+06 M⁻¹ s⁻¹ | koff [4]: 0.00186 s⁻¹ and 0.00173 s⁻¹ and 0.00125 s⁻¹; kon [4]: 28700 M⁻¹ s⁻¹ and 23400 M⁻¹ s⁻¹ and 27200 M⁻¹ s⁻¹; kon [5]: 37600 M⁻¹ s⁻¹ and 12800 M⁻¹ s⁻¹
CCL27 (from UniProt Q9Y4X3 25-112) (ligand) | 41.7 | 0.00409 | 95000 |  |  |  | 110 | 0.00639 | 52000 |  | 36.9 nM and 53 nM and 35.3 nM | 63.9 | 0.00309 | 45000 | 59.4 nM and 191 nM and 78.8 nM |  | 51200 M⁻¹ s⁻¹ and 70200 M⁻¹ s⁻¹ and 34000 M⁻¹ s⁻¹ | 48.2 nM and 78.8 nM and 64.7 nM | 0.00218 s⁻¹ and 0.00268 s⁻¹ and 0.00356 s⁻¹ | 45300 M⁻¹ s⁻¹ and 34000 M⁻¹ s⁻¹ and 55000 M⁻¹ s⁻¹ | koff [5]: 0.00409 s⁻¹ and 0.00367 s⁻¹ and 0.0037 s⁻¹; kon [5]: 111000 M⁻¹ s⁻¹ and 69300 M⁻¹ s⁻¹ and 105000 M⁻¹ s⁻¹

— PMC10349104
